For assay [1], the target named is Glycine max (soybean) heme oxygenase-1 (GmHO-1) (Glycine max (soybean)). Kind of assay: ITC; 800 uM Fd in the syringe into 40 uM holo-GmHO-1 (heme bound) in the cell; 25 °C; 20 mM Tris-HCl pH 7.0, 20 mM NaCl; one set of sites model; single measurement. (In general: Isothermal titration calorimetry measures the heat released or taken up as one component is titrated into another.)

For assay [2] the target is unchanged. Description: ITC; 800 uM Fd in the syringe into 40 uM apo-GmHO-1 (no heme) in the cell; 25 °C; 20 mM Tris-HCl pH 7.0, 20 mM NaCl; one set of sites model; single measurement.

In assay [1], “soybean ferredoxin (Fd) (natural protein)” displayed a dissociation constant Kd of 5.3 µM, a dH of 2.6 kcal/mol and a stoichiometry N of 1. In assay [2], the dissociation constant Kd came out at 14.7 µM, the dH came out at 3.3 kcal/mol and the stoichiometry N turned out to be 1.

By Kd is commonly meant the concentration at which binding is half-saturated. Low readings indicate a tighter complex, high ones a looser complex. As a reminder, the stoichiometry N is a count of units in the complex or per binding partner.

For the origin of these results see PMC7948506.
